Test results from paper PMC10751729 (Protein Science : A Publication of the Protein Society, 2024).

Molecular target: GST‐LC3B (human, UniProt Q9GZQ8 1-120)
Assay: AlphaScreen or HTRF

For SGGDDDWTHLS [LIRtide], the IC50 was 1.7 µM.
